This assay concerns the target synthetic peptide …[pT]ISDSAPSR (human). The assay is described as follows: bead array incubated with the synthetic peptide in digested BSA; bound peptide by MS, peptide left in the sample by dot blot.

Chain of synthetic peptide …[pT]ISDSAPSR (human) (peptide, as listed by the source): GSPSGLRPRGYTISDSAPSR

On to “Rabbit monoclonal antibody recognizing phosphorylated Thr1462 in human Tuberin (TSC2), Cell Signaling Technology catalog number 3617 (5B12)”, for which the binding capacity of a bead array of 5 identical reactive sites, each with 5% of the #3617 antibody is < 15 % of 1 pmol.
